{"source": "patent US20250179161A1", "target": "Amyloid Beta (Aβ) 1-42 (human)", "sequence (peptide, as listed by the source)": "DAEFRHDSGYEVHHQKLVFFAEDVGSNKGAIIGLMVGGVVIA", "assay": "cell-based or functional assay"}
{"substance": "human IgG isotype control antibody", "values": [{"measurement": "Avg. pg/mL Aβ1-42 left after ex vivo phagocytosis, APP/PS1 mouse brain sections with primary murine microglia, mean", "result": 92600, "unit": "pg/mL"}, {"measurement": "Aβ1-42 (pg/ml) left after ex vivo phagocytosis, human AD brain sections with primary murine microglia", "result": 185000, "unit": "pg/mL"}, {"measurement": "Mean (Aβ spots per neuron), isotype control at 1:50 mAb:Aβ42, soluble Aβ 1 µM, rat hippocampal neurons (Aβ spots per neuron)", "result": 58.7}]}
